Data: patent publication US20160272683A1 (Novo Nordisk, published 2016)
Numbered stars: 1 amine (or outer) side, 2 acyl side, 3 side chain; on linkers, the order of the positions; unused ones are H or OH. Square brackets hold non-standard residues; d marks the D form. * marks the point of attachment. C20 diacid = O=C(O)CCCCCCCCCCCCCCCCCCC(=O)*; γGlu = O=C(O)[C@H](CCC(=O)[*:2])N[*:1]

B1: [N-terminal(C20 diacid-gGlu), des1, 9S, 21S, 23Y, 30S, 31G, 33Y]mimylin (peptide)
peptide: {C20 diacid-γGlu}-ASELSTASLGRLSAELHELSTYPRTETGSGSY-NH2
SMILES: CC(C)C[C@H](NC(=O)[C@H](CO)NC(=O)[C@H](C)NC(=O)[C@@H](NC(=O)[C@H](CO)NC(=O)[C@H](CC(C)C)NC(=O)[C@H](CCC(=O)O)NC(=O)[C@H](CO)NC(=O)[C@H](C)NC(=O)CC[C@H](NC(=O)CCCCCCCCCCCCCCCCCCC(=O)O)C(=O)O)[C@@H](C)O)C(=O)NCC(=O)N[C@@H](CCCNC(=N)N)C(=O)N[C@@H](CC(C)C)C(=O)N[C@@H](CO)C(=O)N[C@@H](C)C(=O)N[C@@H](CCC(=O)O)C(=O)N[C@@H](CC(C)C)C(=O)N[C@@H](Cc1c[nH]cn1)C(=O)N[C@@H](CCC(=O)O)C(=O)N[C@@H](CC(C)C)C(=O)N[C@@H](CO)C(=O)N[C@H](C(=O)N[C@@H](Cc1ccc(O)cc1)C(=O)N1CCC[C@H]1C(=O)N[C@@H](CCCNC(=N)N)C(=O)N[C@H](C(=O)N[C@@H](CCC(=O)O)C(=O)N[C@H](C(=O)NCC(=O)N[C@@H](CO)C(=O)NCC(=O)N[C@@H](CO)C(=O)N[C@@H](Cc1ccc(O)cc1)C(N)=O)[C@@H](C)O)[C@@H](C)O)[C@@H](C)O
notes: mimylin derivative; des1 = residue 1 deleted; also called Ex. #100; 100
B2: [N-terminal(C20 diacid-gGlu), des1, 23Y, 30S, 31G, 32A]mimylin (peptide)
peptide: {C20 diacid-γGlu}-ASELSTAALGRLSAELHELATYPRTETGSGAP-NH2
SMILES: CC(C)C[C@H](NC(=O)[C@H](C)NC(=O)[C@H](C)NC(=O)[C@@H](NC(=O)[C@H](CO)NC(=O)[C@H](CC(C)C)NC(=O)[C@H](CCC(=O)O)NC(=O)[C@H](CO)NC(=O)[C@H](C)NC(=O)CC[C@H](NC(=O)CCCCCCCCCCCCCCCCCCC(=O)O)C(=O)O)[C@@H](C)O)C(=O)NCC(=O)N[C@@H](CCCNC(=N)N)C(=O)N[C@@H](CC(C)C)C(=O)N[C@@H](CO)C(=O)N[C@@H](C)C(=O)N[C@@H](CCC(=O)O)C(=O)N[C@@H](CC(C)C)C(=O)N[C@@H](Cc1c[nH]cn1)C(=O)N[C@@H](CCC(=O)O)C(=O)N[C@@H](CC(C)C)C(=O)N[C@@H](C)C(=O)N[C@H](C(=O)N[C@@H](Cc1ccc(O)cc1)C(=O)N1CCC[C@H]1C(=O)N[C@@H](CCCNC(=N)N)C(=O)N[C@H](C(=O)N[C@@H](CCC(=O)O)C(=O)N[C@H](C(=O)NCC(=O)N[C@@H](CO)C(=O)NCC(=O)N[C@@H](C)C(=O)N1CCC[C@H]1C(N)=O)[C@@H](C)O)[C@@H](C)O)[C@@H](C)O
notes: mimylin derivative; des1 = residue 1 deleted; also called Ex. #81; 81
B3: [N-terminal(C20 diacid-gGlu), des1, 12H, 30S, 31G]mimylin (peptide)
peptide: {C20 diacid-γGlu}-ASELSTAALGHLSAELHELATLPRTETGSGSP-NH2
notes: mimylin derivative; also called Ex. #72; 72
B4: [N-terminal(C20 diacid-gGlu), des1, 9T, 21S, 23Y, 30S, 31G, 33Y]mimylin (peptide)
peptide: {C20 diacid-γGlu}-ASELSTATLGRLSAELHELSTYPRTETGSGSY-NH2
SMILES: CC(C)C[C@H](NC(=O)[C@H](CCCNC(=N)N)NC(=O)CNC(=O)[C@H](CC(C)C)NC(=O)[C@@H](NC(=O)[C@H](C)NC(=O)[C@@H](NC(=O)[C@H](CO)NC(=O)[C@H](CC(C)C)NC(=O)[C@H](CCC(=O)O)NC(=O)[C@H](CO)NC(=O)[C@H](C)NC(=O)CC[C@H](NC(=O)CCCCCCCCCCCCCCCCCCC(=O)O)C(=O)O)[C@@H](C)O)[C@@H](C)O)C(=O)N[C@@H](CO)C(=O)N[C@@H](C)C(=O)N[C@@H](CCC(=O)O)C(=O)N[C@@H](CC(C)C)C(=O)N[C@@H](Cc1c[nH]cn1)C(=O)N[C@@H](CCC(=O)O)C(=O)N[C@@H](CC(C)C)C(=O)N[C@@H](CO)C(=O)N[C@H](C(=O)N[C@@H](Cc1ccc(O)cc1)C(=O)N1CCC[C@H]1C(=O)N[C@@H](CCCNC(=N)N)C(=O)N[C@H](C(=O)N[C@@H](CCC(=O)O)C(=O)N[C@H](C(=O)NCC(=O)N[C@@H](CO)C(=O)NCC(=O)N[C@@H](CO)C(=O)N[C@@H](Cc1ccc(O)cc1)C(N)=O)[C@@H](C)O)[C@@H](C)O)[C@@H](C)O
notes: mimylin derivative; des1 = residue 1 deleted; also called Ex. #99; 99
B5: [N-terminal(C20 diacid-gGlu), des1, 30S, 31G, 33H]mimylin (peptide)
peptide: {C20 diacid-γGlu}-ASELSTAALGRLSAELHELATLPRTETGSGSH-NH2
SMILES: CC(C)C[C@H](NC(=O)[C@H](C)NC(=O)[C@H](C)NC(=O)[C@@H](NC(=O)[C@H](CO)NC(=O)[C@H](CC(C)C)NC(=O)[C@H](CCC(=O)O)NC(=O)[C@H](CO)NC(=O)[C@H](C)NC(=O)CC[C@H](NC(=O)CCCCCCCCCCCCCCCCCCC(=O)O)C(=O)O)[C@@H](C)O)C(=O)NCC(=O)N[C@@H](CCCNC(=N)N)C(=O)N[C@@H](CC(C)C)C(=O)N[C@@H](CO)C(=O)N[C@@H](C)C(=O)N[C@@H](CCC(=O)O)C(=O)N[C@@H](CC(C)C)C(=O)N[C@@H](Cc1c[nH]cn1)C(=O)N[C@@H](CCC(=O)O)C(=O)N[C@@H](CC(C)C)C(=O)N[C@@H](C)C(=O)N[C@H](C(=O)N[C@@H](CC(C)C)C(=O)N1CCC[C@H]1C(=O)N[C@@H](CCCNC(=N)N)C(=O)N[C@H](C(=O)N[C@@H](CCC(=O)O)C(=O)N[C@H](C(=O)NCC(=O)N[C@@H](CO)C(=O)NCC(=O)N[C@@H](CO)C(=O)N[C@@H](Cc1c[nH]cn1)C(N)=O)[C@@H](C)O)[C@@H](C)O)[C@@H](C)O
notes: mimylin derivative; des1 = residue 1 deleted; also called Ex. #60; 60
B6: [N-terminal(C20 diacid-gGlu), des1, 23Y, 30S, 31G]mimylin (peptide)
peptide: {C20 diacid-γGlu}-ASELSTAALGRLSAELHELATYPRTETGSGSP-NH2
SMILES: CC(C)C[C@H](NC(=O)[C@H](C)NC(=O)[C@H](C)NC(=O)[C@@H](NC(=O)[C@H](CO)NC(=O)[C@H](CC(C)C)NC(=O)[C@H](CCC(=O)O)NC(=O)[C@H](CO)NC(=O)[C@H](C)NC(=O)CC[C@H](NC(=O)CCCCCCCCCCCCCCCCCCC(=O)O)C(=O)O)[C@@H](C)O)C(=O)NCC(=O)N[C@@H](CCCNC(=N)N)C(=O)N[C@@H](CC(C)C)C(=O)N[C@@H](CO)C(=O)N[C@@H](C)C(=O)N[C@@H](CCC(=O)O)C(=O)N[C@@H](CC(C)C)C(=O)N[C@@H](Cc1c[nH]cn1)C(=O)N[C@@H](CCC(=O)O)C(=O)N[C@@H](CC(C)C)C(=O)N[C@@H](C)C(=O)N[C@H](C(=O)N[C@@H](Cc1ccc(O)cc1)C(=O)N1CCC[C@H]1C(=O)N[C@@H](CCCNC(=N)N)C(=O)N[C@H](C(=O)N[C@@H](CCC(=O)O)C(=O)N[C@H](C(=O)NCC(=O)N[C@@H](CO)C(=O)NCC(=O)N[C@@H](CO)C(=O)N1CCC[C@H]1C(N)=O)[C@@H](C)O)[C@@H](C)O)[C@@H](C)O
notes: mimylin derivative; des1 = residue 1 deleted; also called Ex. #56; 56
B7: [N-terminal(C20 diacid-gGlu), des1, 15e, 30S, 31G]mimylin (peptide)
peptide: {C20 diacid-γGlu}-ASELSTAALGRLS[dE]ELHELATLPRTETGSGSP-NH2
SMILES: CC(C)C[C@H](NC(=O)[C@H](C)NC(=O)[C@H](C)NC(=O)[C@@H](NC(=O)[C@H](CO)NC(=O)[C@H](CC(C)C)NC(=O)[C@H](CCC(=O)O)NC(=O)[C@H](CO)NC(=O)[C@H](C)NC(=O)CC[C@H](NC(=O)CCCCCCCCCCCCCCCCCCC(=O)O)C(=O)O)[C@@H](C)O)C(=O)NCC(=O)N[C@@H](CCCNC(=N)N)C(=O)N[C@@H](CC(C)C)C(=O)N[C@@H](CO)C(=O)N[C@H](CCC(=O)O)C(=O)N[C@@H](CCC(=O)O)C(=O)N[C@@H](CC(C)C)C(=O)N[C@@H](Cc1c[nH]cn1)C(=O)N[C@@H](CCC(=O)O)C(=O)N[C@@H](CC(C)C)C(=O)N[C@@H](C)C(=O)N[C@H](C(=O)N[C@@H](CC(C)C)C(=O)N1CCC[C@H]1C(=O)N[C@@H](CCCNC(=N)N)C(=O)N[C@H](C(=O)N[C@@H](CCC(=O)O)C(=O)N[C@H](C(=O)NCC(=O)N[C@@H](CO)C(=O)NCC(=O)N[C@@H](CO)C(=O)N1CCC[C@H]1C(N)=O)[C@@H](C)O)[C@@H](C)O)[C@@H](C)O
notes: mimylin derivative; des1 = residue 1 deleted; lower case e = D-form of Glu; also called Ex. #67; 67

Legend:
[1] = target: T1, human calcitonin receptor (human, UniProt P30988 25-474); experiment: SPA competition vs 125I-calcitonin, membranes with human CTR (Assay VII)
T1 construct: whole, on cells; Assay VII: membranes on SPA beads; also called hCT-R; hCTR
T1 sequence (looked up): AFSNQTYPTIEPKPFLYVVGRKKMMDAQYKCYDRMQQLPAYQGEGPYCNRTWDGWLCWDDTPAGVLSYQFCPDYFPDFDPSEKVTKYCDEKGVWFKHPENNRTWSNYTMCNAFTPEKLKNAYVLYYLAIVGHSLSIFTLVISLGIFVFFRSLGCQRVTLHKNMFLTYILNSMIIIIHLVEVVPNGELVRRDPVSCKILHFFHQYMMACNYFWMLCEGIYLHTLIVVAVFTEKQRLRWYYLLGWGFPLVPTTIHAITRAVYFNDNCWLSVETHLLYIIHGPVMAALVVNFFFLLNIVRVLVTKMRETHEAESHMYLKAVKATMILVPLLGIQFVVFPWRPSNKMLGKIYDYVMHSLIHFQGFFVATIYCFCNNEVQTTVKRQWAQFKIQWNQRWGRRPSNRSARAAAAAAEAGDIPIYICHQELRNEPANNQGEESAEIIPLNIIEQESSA
Procedure: The binding assay was performed using scintillation proximity assay (SPA) beads (RPNQ0001) from PerkinElmer® and cell membranes prepared from a BHK tk'ts 13 cell line was stably transfected with the human calcitonin receptor and a CRE-responsive luciferase reporter gene. Membranes were prepared in the following way; the cells were rinsed with PBS and incubated with Versene for approximately 5 min before harvesting. The cells were flushed with PBS and the cell-suspension was centrifuged for 5 min at 1000 rpm.
(§1) EDTA (pH 7.4, buffer 2). The resulting pellet was resuspended in buffer 2 and protein concentration was tested (BCA protein Assay, Pierce). The homogenate was kept cold during the whole procedure. The membranes were kept at −80° C. until use. Assay was performed in a 384 well Optiplate (PerkinElmer®) in a total volume of 40 ul. Membranes were mixed with SPA beads. Final concentration of membranes 35 ng/μL final and Final concentration of SPA beads was 0.05 mg/well. Test-compounds were dissolved in DMSO and further diluted in assay buffer (50 mM Hepes, pH 7.4, 1 mM CaCl2, 5 mM MgCl2, 0.1% OA and 0.02% Tween20). […] Samples were analyzed on TopCounter™ (Packard). The IC₅₀ was calculated using (one site binding competition analysis) GraphPad Prism5 as a measure of receptor affinity.

[2] = target: T2, human amylin receptor (amylin 3(a) receptor: human calcitonin receptor with RAMP-3) (human, UniProt P30988 25-474; O60896 24-148, limits assumed); experiment: SPA competition vs 125I-rat amylin, membranes with human CTR + RAMP-3 (Assay V)
T2 construct: whole, on cells; Assay V: membranes of the Amylin 3(a)/CRE-luc BHK cells on SPA beads; also called hAmylin-R
T2 sequence (looked up) 1: T1 sequence (looked up)
T2 sequence (looked up) 2: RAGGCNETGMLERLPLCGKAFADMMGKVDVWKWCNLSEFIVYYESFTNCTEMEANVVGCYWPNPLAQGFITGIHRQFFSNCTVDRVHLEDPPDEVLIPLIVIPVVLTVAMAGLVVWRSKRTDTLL
Procedure: as §1, with “The binding assay was performed using scintillation proximity assay (SPA) beads (RPNQ0001) from PerkinElmer and cell membranes from the Amylin 3(a)/CRE-luc cells (as described in Assay (II)) were used. Membranes were prepared in the following way; the cells were rinsed with PBS and incubated with Versene for approximately 5 min before harvesting. The cells were flushed with PBS and the cell-suspension was centrifuged for 5 min at 1000 rpm. […] The” for “EDTA (pH 7.4, buffer 2). The”, “use. The assay” for “use. Assay”, “Optiplate (PerkinElmer)” for “Optiplate (PerkinElmer®)”, “and” for “and Final concentration of”

| Binder | IC50 [1] [nM] | IC50 [2] [nM] |
| --- | --- | --- |
| B1 | 0.1 | 0.171 |
| B2 | 0.102 | 0.141 |
| B3 | 0.097 | 0.565 |
| B4 | 0.154 | 0.159 |
| B5 | 0.034 | 0.057 |
| B6 | 0.07 | 0.394 |
| B7 | 0.022 | 0.029 |
